Where a chain is given by its changes, count along the chain named.
T1: recombinant AFP protein (UniProt P02771 19-609, limits assumed)
T1 construct: also called AFP recombinant protein
T1 sequence (looked up): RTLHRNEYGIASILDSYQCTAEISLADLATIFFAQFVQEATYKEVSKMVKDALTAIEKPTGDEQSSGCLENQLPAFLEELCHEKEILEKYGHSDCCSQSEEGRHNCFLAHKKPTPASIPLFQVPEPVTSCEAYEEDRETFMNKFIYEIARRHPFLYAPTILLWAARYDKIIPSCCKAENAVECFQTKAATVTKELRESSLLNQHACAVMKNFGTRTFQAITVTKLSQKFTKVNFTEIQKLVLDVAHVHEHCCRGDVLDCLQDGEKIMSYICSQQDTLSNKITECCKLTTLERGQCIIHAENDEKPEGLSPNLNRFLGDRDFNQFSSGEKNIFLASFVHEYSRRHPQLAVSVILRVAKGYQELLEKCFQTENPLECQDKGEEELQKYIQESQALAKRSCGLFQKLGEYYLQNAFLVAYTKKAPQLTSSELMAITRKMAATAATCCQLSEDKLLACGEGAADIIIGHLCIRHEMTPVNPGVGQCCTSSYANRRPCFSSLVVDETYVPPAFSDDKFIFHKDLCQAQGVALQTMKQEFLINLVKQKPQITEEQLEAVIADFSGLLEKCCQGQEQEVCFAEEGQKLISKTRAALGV

B1: full-length AFP158 mouse chimeric IgG1 antibody 1402-76 (antibody, V domains shown)
VH: EVQLVESGGGLVKPGGSLRLSCAASGFTFSNAWMSWVRQAPGKGLEWVGFIRSKAYGGTTEYAASVKGRFTISRDDSKSIAYLQMNNLKTEDTAVYYCARDGLYSSSWYDSDYWGQGTLVTVSS
VL: QSVVTQPPSVSAAPGQKVTISCSGSSSNIGNNYVSWYQQLPGTAPKLLIYDNNKRPSGIPDRFSGSKSGTSATLGITGLQTGDEADYYCGTWDGSLYTMLFGGGTKLTVLG
notes: bivalent IgG
B2: #44 (scFv, V domains shown, not shown: large carriers; small tags and cut ends)
VH: QVQLVQSGAEVKKPGSSVKVSCKASGGTFSSYAISWVRQAPGQGLEWMGGIIPIFGTANYAQKFQGRVTITADESTSTAYMELSSLRSEDTAVYYCAREIRGYYYYYGMDVWGQGTTVTVSS
VL: SYELTQPPSVSVAPGKTARITCGGDNIGTKSVTWYQQRPGQAPMMVIYYDTVRPSGIPERLSGSNSGNTATLTITRVEAGDEADYYCQVWDSSSDHPVFGGGTKLTVL
notes: also called Clone 44; AFP158/HLA-A*02:01-specific scFv phage clone #44; copies: 1 + 1
B3: full-length AFP158 mouse chimeric IgG1 antibody 1402-61 (antibody, V domains shown)
VH: EVQLVQSGAEVKKPGESLTISCKASGYSFPNYWITWVRQMSGGGLEWMGRIDPGDSYTTYNPSFQGHVTISIDKSTNTAYLHWNSLKASDTAMYYCARYYVSLVDIWGQGTLVTVSS
VL: QSVLTQPASVSGSPGQSITISCTGTSSDVGGYNYVSWYQQHPGKAPKLMIYDVNNRPSEVSNRFSGSKSGNTASLTISGLQAEDEADYYCSSYTTGSRAVFGGGTKLTVLG
notes: bivalent IgG
B4: AFP158/HLA-A*02:01-specific scFv phage clone #17 (scFv, V domains shown)
VH: EVQLVQSGAEVKKPGASVKVSCKASGYTFTSYGISWVRQAPGQGLEWMGWISAYNGNTNYAQKLQGRVTMTTDTSTSTAYMELRSLRSDDTAVYYCARYQDWWYLGQFDQWGQGTLVTVSS
VL: QSALTQPASVSGSPGQSITISCTATGSDVGVYYYVSWYQQHPGKAPKVMIYDVGNRPPGVSNRFSGSKSGNTASLTISGLQAEDEADYYCASYTNRNSLGYVFGTGTKVTVLG
B5: AFP158/HLA-A*02:01-specific scFv phage clone #17-13 (scFv, V domains shown)
VH: B4 VH with Y99F
VL: B4 VL with G54D
notes: also called AM1402-17-13
B6: full-length AFP158 mouse chimeric IgG1 antibody 1402-79 (antibody, V domains shown)
VH: QMQLVQSGGGLVQPGRSLRLSCAASGFTFDDYAMHWVRQAPGKGLEWVSGISWNSGSIGYADSVKGRFTISRDNAKNSLYLQMNSLRAEDTALYYCAKDIHSGSYYGLLYYAMDVWGQGTTVTVSS
VL: QSVLTQPPSVSGAPGQRVTISCTGSSSNIGAGYDVHWYQQLPGTAPKLLIFGNSNRPSGVPDRFSGFKSGTSASLAITGLQAEDEADYFCQSYDSSLSGSGVFGTGTKVTVLG
notes: bivalent IgG
B7: AFP158/HLA-A*02:01-specific scFv phage clone #33 (scFv, V domains shown)
VH: QVQLQQSGPGLVKPSQTLSLTCAISGDSVSSNSAAWNWIRQSPSRGLEWLGRTYYRSKWYNDYAVSVKSRITINPDTSKNQFSLQLNSVTPEDTAVYYCARGSYYSGRYDAWGQGTLVTVSS
VL: NFMLTQPHSVSESPGKTVTISCTRSSGSIASNYVQWYQQRPGSSPTTVIYEDNQRPSGVPDRFSGSIDSSSNSASLTISGLKTEDEADYYCQSYDSSTVVFGGGTKLTVLG
B8: #50 (scFv, V domains shown, not shown: large carriers; small tags and cut ends)
VH: QVQLQESGPGLVKPSGTLSLTCAVSGGSISSSNWWSWVRQPPGKGLEWIGEIYHSGSTNYNPSLKSRVTISVDKSKNQFSLKLSSVTAADTAVYYCATGYGGYFDYWGQGTLVTVSS
VL: QSVLTQPPSVSVAPGKTARITCGGNNIGSKSVHWYQQKPGQAPVLVIYYDSDRPSGIPERFSGSNSGNTATLTISRVEAGDEADYYCQVWDSSSDHVVFGGGTKLTVL
notes: also called Clone 50; AFP158/HLA-A*02:01-specific scFv phage clone #50; copies: 1 + 1
B9: AFP158/HLA-A*02:01-specific scFv phage clone #48 (scFv, V domains shown)
VH: EVQLVESGGGLVQPGRSLRLSCAASGFTFDDYAMHWVRQAPGKGLEWVSGISWNSGRIGYADSVKGRFTISRDNAKNSLYLQMNSLRAEDTAVYYCARADDYGAPYYYYGMDVWGQGTTVTVSS
VL: QSVLTQPPSVSGAPGQRVTISCTGSSSNIGAGYDVHWYQQLPGTAPKLLIYGNSNRPSGVPDRFSGSKSGTSASLAITGLQAEDEADYYCQSYDSSLSGSVFGTGTKVTVLG

Legend:
[1] = molecular target: T1, recombinant AFP protein; assay: ELISA on AFP protein coated at 2 µg/mL
Procedure: Antibodies were tested at 3× serial dilution, starting from 100 ng/mL, for a total of 8 concentrations. Biotinlyated AFP158/A*02:01 MHC was coated onto streptavidin plates at 2 μg/mL, AFP protein was coated at 2 μg/mL and AFP158 peptide was coated at 40 ng/mL.

[2] = molecular target: T2, hTERT540 peptide (…)/HLA-A*02:01 on T2 cells (human); assay: FACS of scFv phage on hTERT peptide-loaded T2 cells
T2 construct: control peptide-MHC; also called β2M/hTERT peptide-loaded T2 cells
Procedure: (§1) Specific and unique clones were further tested for their binding to HLA-A2/peptide complexes on live cell surfaces by flow cytometry (FACS analysis) using AFP158-loaded live T2 cells. T2 cells loaded with different peptides and β2M were first stained with purified scFv phage clones, followed by staining with a mouse anti-M13 mAb, and finally the R-PE conjugated horse anti-mouse IgG from Vector Labs. Each step of the staining was done between 30-60 minutes on ice and the cells were washed twice between staining.

[3] = molecular target: T3, AFP158/HLA-A*02:01 complex presented on cells (human); assay: FACS of scFv phage on AFP158 peptide-loaded T2 cells, anti-M13 mAb and R-PE anti-mouse IgG
T3 construct: the cell line used is named under assay in each row; also called AFP158-loaded T2 cells; human AFP158-loaded T2 cells
Procedure: as §1

[4] = molecular target: T4, mouse AFP158 peptide/HLA-A*02:01 complex on T2 cells (human; mouse); assay: FACS of scFv phage on mouse AFP158 peptide-loaded T2 cells
T4 construct: also called mouse AFP158-loaded T2 cells

[5] = molecular target: T5, HLA-A*02:01 on T2 cells with β2M but without peptide loaded (human); assay: FACS of scFv phage on β2M-loaded T2 cells without peptide
T5 construct: control without added peptide; also called β2M-loaded T2 cells
Procedure: as §1

[6] = molecular target: T4, mouse AFP158 peptide/HLA-A*02:01 …; assay: FACS, phage clone on peptide-loaded T2 cells
[7] = molecular target: T3, AFP158/HLA-A*02:01 complex presented on …; assay: FACS, phage clone on peptide-loaded T2 cells
[8] = molecular target: T6, hAFP158 A5 peptide (…)/HLA-A*02:01 on T2 cells (human); assay: FACS, scFv phage clone on peptide-loaded T2 cells
T6 construct: also called Ala Position 5
Procedure: (§2) Antibody phage clones were then tested for binding to these peptide-loaded T2 cells by FACS analysis.

[9] = molecular target: T7, hAFP158 A4 peptide (…)/HLA-A*02:01 on T2 cells (human); assay: FACS, scFv phage clone on peptide-loaded T2 cells
T7 construct: also called Ala Position 4
Procedure: as §2

[10] = molecular target: T8, hAFP158 A6 peptide (…)/HLA-A*02:01 on T2 cells (human); assay: FACS, scFv phage clone on peptide-loaded T2 cells
T8 construct: also called Ala Position 6
Procedure: as §2

[11] = molecular target: T9, hAFP158 A1 peptide (…)/HLA-A*02:01 on T2 cells (human); assay: FACS, scFv phage clone on peptide-loaded T2 cells
T9 construct: also called Ala Position 1
Procedure: as §2

[12] = molecular target: T3, AFP158/HLA-A*02:01 complex presented on …; assay: FACS, scFv phage clone on peptide-loaded T2 cells
Procedure: as §2

[13] = molecular target: T10, hAFP158 A8 peptide (…)/HLA-A*02:01 on T2 cells (human); assay: FACS, scFv phage clone on peptide-loaded T2 cells
T10 construct: also called Ala Position 8
Procedure: as §2

[14] = molecular target: T11, hAFP158 A7 peptide (…)/HLA-A*02:01 on T2 cells (human); assay: FACS, scFv phage clone on peptide-loaded T2 cells
T11 construct: also called Ala Position 7
Procedure: as §2

[15] = molecular target: T12, hAFP158 A3 peptide (…)/HLA-A*02:01 on T2 cells (human); assay: FACS, scFv phage clone on peptide-loaded T2 cells
T12 construct: also called Ala Position 3
Procedure: as §2

Row | Binder | binding result [1] | binding result [2] | binding result [3] | binding result [5] | binding result [6] | other results
1 | B1 | no binding (tested: 100 ng/mL) | – | – | – | – | –
2 | B2 | – | no binding | binds | no binding | – | binding result [4]: no binding
3 | B3 | no binding (tested: 100 ng/mL) | – | – | – | – | –
4 | B4 | – | – | – | – | binds | binding result [7]: binds
5 | B5 | – | – | – | – | – | FACS binding signal (name and unit not given) [8]: 1500; FACS binding signal (name and unit not given) [9]: 50800; FACS binding signal (name and unit not given) [10]: 28800; FACS binding signal (name and unit not given) [11]: 55600; FACS binding signal (name and unit not given) [12]: 83300; FACS binding signal (name and unit not given) [13]: 43200; FACS binding signal (name and unit not given) [14]: 572; FACS binding signal (name and unit not given) [15]: 2910
6 | B6 | no binding (tested: 100 ng/mL) | – | – | – | – | –
7 | B7 | – | no binding | binds | no binding | binds | –
8 | B8 | – | no binding | binds | no binding | – | –
9 | B9 | – | no binding | binds | no binding | binds | –
